For the assay, the target named is RBD-iFcv1 (SARS-CoV-2; human, 23 residues replaced …).

The values that follow come from patent US20230310584A1 (published 2023).

Values joined by “and” are separate entries in the source; they are usually repeats but may differ in a detail not shown here. Equal entries are not always repeated.

B1: His-tagged CD64 (Acrobiosystems, FCA-H52H1) (receptor)
chain: QVDTTKAVITLQPPWVSVFQEETVTLHCEVLHLPGSSSTQWFLNGTATQTSTPSYRITSASVNDSGEYRCQRGLSGRSDPIQLEIHRGWLLLQVSSRVFTEGEPLALRCHAWKDKLVYNVLYYRNGKAFKFFHWNSNLTILKTNISHNGTYHCSGMGKHRYTSAGISVTVKELFPAPVLNASVTSPLLEGNLVTLSCETKLLLQRPGLQLYFSFYMGSKTLRGRNTSSEYQILTARREDSGLYWCEAATEDGNVLKRSPELELQVLGLQLPTP
By Kd is commonly meant the equilibrium constant for the complex coming apart. The term kon denotes the second-order rate constant of association. Higher therefore signals faster complex formation. For B1, the Kd was 2.34 nM and 1.61 nM and 0.963 nM; the on-rate (kon) was 260000 M⁻¹ s⁻¹ and 189000 M⁻¹ s⁻¹ and 200000 M⁻¹ s⁻¹.
